Our source for the Kd values is patent US20220064329A1 (Novo Nordisk, published 2022).

Test in all cases: SPR, Biacore T200, 25 C; FVII(a) variant captured on anti-Gla Ab 4F6, mAb0842(OA) injected
One experiment concerns the target T1, FVII(a) variant P251A (human, UniProt P08709 61-466).
T1 construct: hFVII alanine variant in cell culture supernatant
T1 sequence: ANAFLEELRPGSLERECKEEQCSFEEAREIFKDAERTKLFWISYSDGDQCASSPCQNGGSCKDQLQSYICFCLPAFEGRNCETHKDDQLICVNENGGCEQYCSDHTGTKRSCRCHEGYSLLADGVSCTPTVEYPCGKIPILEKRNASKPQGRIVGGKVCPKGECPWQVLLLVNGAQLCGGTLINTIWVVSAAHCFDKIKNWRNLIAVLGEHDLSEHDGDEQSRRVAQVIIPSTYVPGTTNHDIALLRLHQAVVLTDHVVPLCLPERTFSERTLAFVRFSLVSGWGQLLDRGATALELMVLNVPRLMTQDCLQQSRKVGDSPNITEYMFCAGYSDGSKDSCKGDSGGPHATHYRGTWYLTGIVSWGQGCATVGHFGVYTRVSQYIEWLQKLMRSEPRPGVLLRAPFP
The protocol:
(§1) The running buffer was prepared by diluting 10-fold the 10×HBS-P buffer (supplied by GE Healthcare) and supplemented with 1 mg/ml BSA and 5 mM CaCl2 to give 10 mM HEPES, 150 mM NaCl, 0.05% v/v Polysorbate 20, pH 7.4, 5 mM CaCl2, 1 mg/ml bovine serum albumin (BSA). […] Regeneration of the chip was achieved using 10 mM HEPES, 150 mM NaCl, 20 mM EDTA, 0.05 v/v Polysorbate 20, pH 7.4. Binding data were analysed according to a 1:1 Kinetic model and steady state analysis using BiaEvaluation 4.1 supplied by the manufacturer (Biacore AB, Uppsala, Sweden). Wherever possible, ka, kd and KD values from 1:1 kinetic fitting model are reported. […] An amino acid residue is considered a hot-spot residue if substitution of that amino acid residue with alanine results in an affinity reduction of ten (10) fold or more relative to the wild type.

In another experiment the target is T2, FVII(a) variant V252A (human, UniProt P08709 61-466).
T2 construct: hFVII alanine variant in cell culture supernatant
T2 sequence: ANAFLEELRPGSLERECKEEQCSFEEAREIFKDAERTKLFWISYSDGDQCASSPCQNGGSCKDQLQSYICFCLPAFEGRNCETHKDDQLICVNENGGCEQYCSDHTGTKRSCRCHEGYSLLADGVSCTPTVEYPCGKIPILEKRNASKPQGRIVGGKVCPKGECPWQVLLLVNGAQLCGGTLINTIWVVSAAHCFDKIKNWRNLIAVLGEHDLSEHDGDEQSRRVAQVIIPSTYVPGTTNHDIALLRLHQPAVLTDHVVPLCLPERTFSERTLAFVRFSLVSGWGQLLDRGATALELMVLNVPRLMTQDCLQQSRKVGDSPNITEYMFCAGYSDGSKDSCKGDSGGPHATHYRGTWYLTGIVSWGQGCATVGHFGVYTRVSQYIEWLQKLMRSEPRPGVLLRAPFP
As to the method: as §1

The target in a further experiment is T3, FVII(a) variant E265A (human, UniProt P08709 61-466).
T3 construct: hFVII alanine variant in cell culture supernatant
T3 sequence: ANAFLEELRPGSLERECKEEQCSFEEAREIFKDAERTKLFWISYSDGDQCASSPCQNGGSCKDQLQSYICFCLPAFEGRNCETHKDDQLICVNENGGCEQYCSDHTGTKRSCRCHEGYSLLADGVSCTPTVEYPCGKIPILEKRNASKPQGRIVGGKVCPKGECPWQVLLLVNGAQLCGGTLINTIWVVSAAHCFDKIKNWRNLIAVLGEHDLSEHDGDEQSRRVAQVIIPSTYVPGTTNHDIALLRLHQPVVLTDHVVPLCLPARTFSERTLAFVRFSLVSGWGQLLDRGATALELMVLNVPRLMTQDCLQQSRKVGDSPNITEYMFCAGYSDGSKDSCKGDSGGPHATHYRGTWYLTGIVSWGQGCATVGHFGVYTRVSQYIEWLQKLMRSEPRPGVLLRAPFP
As to the method:
as §1

Another experiment concerns the target T4, FVII(a) variant E116A (human, UniProt P08709 61-466).
T4 construct: hFVII alanine variant in cell culture supernatant
T4 sequence: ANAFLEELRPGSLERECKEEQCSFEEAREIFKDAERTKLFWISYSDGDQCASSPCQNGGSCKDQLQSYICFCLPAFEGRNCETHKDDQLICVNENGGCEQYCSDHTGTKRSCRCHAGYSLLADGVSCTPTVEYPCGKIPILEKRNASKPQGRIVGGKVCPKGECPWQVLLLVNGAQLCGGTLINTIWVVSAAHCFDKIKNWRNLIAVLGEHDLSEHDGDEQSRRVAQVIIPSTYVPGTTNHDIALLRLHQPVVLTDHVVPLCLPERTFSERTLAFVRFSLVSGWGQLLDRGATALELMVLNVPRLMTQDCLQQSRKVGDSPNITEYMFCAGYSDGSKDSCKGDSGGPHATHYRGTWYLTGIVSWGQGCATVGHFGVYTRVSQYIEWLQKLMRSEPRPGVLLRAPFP
The protocol:
as §1

A further experiment has as its target T5, FVII(a) variant S119A (human, UniProt P08709 61-466).
T5 construct: hFVII alanine variant in cell culture supernatant
T5 sequence: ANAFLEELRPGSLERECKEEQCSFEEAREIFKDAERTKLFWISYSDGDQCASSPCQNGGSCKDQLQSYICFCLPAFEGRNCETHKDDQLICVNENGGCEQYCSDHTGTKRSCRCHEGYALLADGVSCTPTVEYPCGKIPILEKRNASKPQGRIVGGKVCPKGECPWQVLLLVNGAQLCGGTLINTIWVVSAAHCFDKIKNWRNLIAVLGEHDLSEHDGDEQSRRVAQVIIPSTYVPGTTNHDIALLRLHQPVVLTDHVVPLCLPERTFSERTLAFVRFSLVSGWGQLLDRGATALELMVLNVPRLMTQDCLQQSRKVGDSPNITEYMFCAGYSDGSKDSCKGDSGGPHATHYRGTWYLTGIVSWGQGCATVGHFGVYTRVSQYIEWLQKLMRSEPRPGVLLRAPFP
As to the method:
as §1

B1: mAb0842(OA) (antibody, human IgG4 S228P, kappa)
heavy: QVQLQESGPGLVKPSQTLSLTCTVSGYSISSDSAWSWIRQPPGKGLEWIGYIQYSGSTNYNPSLKSRVTISRDTSKNQFSLKLSSVTAADTAVYYCARSVNYYGNSFAVGYWGQGTLVTVSSASTKGPSVFPLAPCSRSTSESTAALGCLVKDYFPEPVTVSWNSGALTSGVHTFPAVLQSSGLYSLSSVVTVPSSSLGTKTYTCNVDHKPSNTKVDKRVESKYGPPCPPCPAPEFLGGPSVFLFPPKPKDTLMISRTPEVTCVVVDVSQEDPEVQFNWYVDGVEVHNAKTKPREEQFNSTYRVVSVLTVLHQDWLNGKEYKCKVSNKGLPSSIEKTISKAKGQPREPQVYTLPPSQEEMTKNQVSLSCAVKGFYPSDIAVEWESNGQPENNYKTTPPVLDSDGSFFLVSRLTVDKSRWQEGNVFSCSVMHEALHNHYTQKSLSLSLGK
light: EIVLTQSPATLSLSPGERATLSCRASQGISDYLHWYQQKPGEAPRLLIKYTSQPATGIPARFSGSGSGTDFTLTISSLEPEDFAVYYCQNGHSFPLTFGQGTKLEIKRTVAAPSVFIFPPSDEQLKSGTASVVCLLNNFYPREAKVQWKVDNALQSGNSQESVTEQDSKDSTYSLSSTLTLSKADYEKHKVYACEVTHQGLSSPVTKSFNRGEC
chain: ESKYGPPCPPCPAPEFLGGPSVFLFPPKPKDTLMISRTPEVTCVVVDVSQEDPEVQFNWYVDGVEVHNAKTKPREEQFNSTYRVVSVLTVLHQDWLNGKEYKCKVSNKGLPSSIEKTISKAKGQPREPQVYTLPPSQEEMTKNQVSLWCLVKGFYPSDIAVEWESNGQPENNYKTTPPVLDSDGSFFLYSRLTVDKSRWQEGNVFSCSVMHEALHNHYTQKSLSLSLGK
notes: also called monovalent humanized 11F2 antibody; one-armed anti-FVII(a) antibody
On to B1, for which the Kd came out at 0.85 nM with FVII(a) variant P251A; 0.28 nM in the experiment with FVII(a) variant V252A; 0.98 nM with FVII(a) variant E265A; 0.5 nM with FVII(a) variant E116A; 0.31 nM with FVII(a) variant S119A.

As usually defined, the Kd is a measure of binding affinity in units of concentration. High values mean weaker binding, low ones tighter binding.
